Test results from article PMC8969154, “Deglutarylation of glutaryl-CoA dehydrogenase by deacylating enzyme SIRT5 promotes lysine oxidation in mice” (The Journal of Biological Chemistry, 2022).

Key:
[1] = biological target: the molecule itself; assay: native gel or EMSA; BN-PAGE (NativePAGE 4-16% Bis-Tris) of liver mitochondria solubilised in 2% n-dodecyl-β-D-maltoside, 0.5% G-250; immunoblot for GCDH; SIRT5WT and SIRT5KO mice, fed or 24 h fasted; GCDHKO mitochondria as control for the band
[2] = biological target: the molecule itself; assay: SEC; Superdex 200 Increase 10/300 GL, 25 mM Hepes pH 7.8, 30 mM NaCl, 0.75 ml/min; column calibrated with standard proteins; comparison of unmodified and modified GCDH told as data not shown

Protein	stoichiometry N [1]	stoichiometry N [2]
glutaryl-CoA dehydrogenase (GCDH), endogenous, mouse liver mitochondria (enzyme, mouse (endogenous in liver mitochondria), UniProt Q60759 45-438, looked up, glutaryl-CoA dehydrogenase, mouse, endogenous in liver mitochondria of SIRT5WT and SIRT5KO mice (GCDHKO mitochondria used to identify the band); Glutarylation state differs with genotype and feeding state (higher in starved SIRT5KO liver); also called GCDH tetramer; source: endogenous, mouse liver mitochondria solubilised in 2% n-dodecyl-β-D-maltoside) RPVFDWKDPLILEEQLTADEKLIRDTFRNYCQERLMSRILLANRNEVFHRDIVYEMGELGVLGPTIKGYGCAGVSSVAYGLLTRELERVDSGYRSMMSVQSSLVMHPIYTYGSEEQRQKYLPGLAKGELLGCFGLTEPNHGSDPGGMETRARHNPSNQSYTLSGTKTWITNSPVADLFIVWARCEDNCIRGFILEKGMRGLSAPRIEGKFSLRASATGMIIMDSVEVPEENVLPNVSSLAGPFGCLNTARYGITWGVLGAAEFCLHTARQYALDRIQFGVPLARNQLVQKKLADMLTEITLGLHACLQLGRLKDQDKATPEMVSMLKRNNCGKALDIARQARDILGGNGISDEYHVIRHAMNLEAVNTYEGTHDIHALILGRAITGIQAFTVGK	4	
human recombinant GCDH protein (hGCDH-6XHIS), unmodified (enzyme, UniProt Q92947 45-438, looked up, hGCDH-6XHIS 'modified from UniProtKB - Q92947'; printed residue numbers count on the full-length human GCDH protein; also called recombinant human GCDH; unmodified GCDH) RPEFDWQDPLVLEEQLTTDEILIRDTFRTYCQERLMPRILLANRNEVFHREIISEMGELGVLGPTIKGYGCAGVSSVAYGLLARELERVDSGYRSAMSVQSSLVMHPIYAYGSEEQRQKYLPQLAKGELLGCFGLTEPNSGSDPSSMETRAHYNSSNKSYTLNGTKTWITNSPMADLFVVWARCEDGCIRGFLLEKGMRGLSAPRIQGKFSLRASATGMIIMDGVEVPEENVLPGASSLGGPFGCLNNARYGIAWGVLGASEFCLHTARQYALDRMQFGVPLARNQLIQKKLADMLTEITLGLHACLQLGRLKDQDKAAPEMVSLLKRNNCGKALDIARQARDMLGGNGISDEYHVIRHAMNLEAVNTYEGTHDIHALILGRAITGIQAFTASK		4
chemically succinylated human recombinant GCDH (succinyl-GCDH) (enzyme, UniProt Q92947 45-438, looked up, succinyl-lysine by chemical succinylation: 11 sites found (shown in Fig. S3D, not given), as the chain of m2, chemically succinylated; printed residue numbers count on the full-length human GCDH protein; also called succinylated GCDH; modified GCDH) RPEFDWQDPLVLEEQLTTDEILIRDTFRTYCQERLMPRILLANRNEVFHREIISEMGELGVLGPTIKGYGCAGVSSVAYGLLARELERVDSGYRSAMSVQSSLVMHPIYAYGSEEQRQKYLPQLAKGELLGCFGLTEPNSGSDPSSMETRAHYNSSNKSYTLNGTKTWITNSPMADLFVVWARCEDGCIRGFLLEKGMRGLSAPRIQGKFSLRASATGMIIMDGVEVPEENVLPGASSLGGPFGCLNNARYGIAWGVLGASEFCLHTARQYALDRMQFGVPLARNQLIQKKLADMLTEITLGLHACLQLGRLKDQDKAAPEMVSLLKRNNCGKALDIARQARDMLGGNGISDEYHVIRHAMNLEAVNTYEGTHDIHALILGRAITGIQAFTASK		4
chemically glutarylated human recombinant GCDH (glutaryl-GCDH) (enzyme, UniProt Q92947 45-438, looked up, glutaryl-lysine by chemical glutarylation: 10 sites found; heavily glutarylated K163, K170, K202, K240, K253, K357, K371, K377 (numbers of full-length human GCDH), as the chain of m2, chemically glutarylated; printed residue numbers count on the full-length human GCDH protein; also called glutarylated GCDH; modified GCDH) RPEFDWQDPLVLEEQLTTDEILIRDTFRTYCQERLMPRILLANRNEVFHREIISEMGELGVLGPTIKGYGCAGVSSVAYGLLARELERVDSGYRSAMSVQSSLVMHPIYAYGSEEQRQKYLPQLAKGELLGCFGLTEPNSGSDPSSMETRAHYNSSNKSYTLNGTKTWITNSPMADLFVVWARCEDGCIRGFLLEKGMRGLSAPRIQGKFSLRASATGMIIMDGVEVPEENVLPGASSLGGPFGCLNNARYGIAWGVLGASEFCLHTARQYALDRMQFGVPLARNQLIQKKLADMLTEITLGLHACLQLGRLKDQDKAAPEMVSLLKRNNCGKALDIARQARDMLGGNGISDEYHVIRHAMNLEAVNTYEGTHDIHALILGRAITGIQAFTASK		4
